Experimental findings from patent publication US20150132313A1 are described below.

One assay deals with IFNα2a (human) (UniProt P01563). Nature of the assay: cell-based or functional assay.
A further assay addresses human leukocyte IFN. Nature of the assay: cell-based or functional assay.

MEDI-545, sequence (VH): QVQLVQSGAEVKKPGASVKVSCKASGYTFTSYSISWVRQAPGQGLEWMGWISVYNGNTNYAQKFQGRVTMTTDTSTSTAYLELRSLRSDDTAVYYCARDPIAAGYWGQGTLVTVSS
MEDI-545, sequence (VL): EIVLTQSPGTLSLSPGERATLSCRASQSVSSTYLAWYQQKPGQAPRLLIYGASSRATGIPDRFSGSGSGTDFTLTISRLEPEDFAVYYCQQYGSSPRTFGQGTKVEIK

As for MEDI-545 (antibody), in the assay with IFNα2a (human), the HERC5 gene expression (Average), 107 IFN + 545 (107 IFN alone 41.12; 107 VEH 1.00) came out at 6.29; the HERC5 gene expression (Average), 163 IFN + 545 (163 IFN alone 75.81; 163 VEH 1.05) was 7.83; the HERC5 gene expression (Average), 175 IFN + 545 (175 IFN alone 74.58; 175 VEH 1.19) was determined as 6.89; the IFIT1 gene expression, Average (TAQMAN, whole blood + 100 IU IFNα2a + MEDI-545; donor 107; IFN alone 80.21) (relative expression) was found to be 13.1. For the same substance, in the assay with IFNα2a (human), the IFIT1 gene expression, Average (TAQMAN, whole blood + 100 IU IFNα2a + MEDI-545; donor 163; IFN alone 51.65) (relative expression) is 7.6; the IFIT1 gene expression, Average (TAQMAN, whole blood + 100 IU IFNα2a + MEDI-545; donor 175; IFN alone 82.98) (relative expression) was found to be 8.4; the IFIT3 gene expression, Average (TAQMAN, whole blood + 100 IU IFNα2a + MEDI-545; donor 107; IFN alone 38.43) (relative expression) was found to be 6.78; the IFIT3 gene expression, Average (TAQMAN, whole blood + 100 IU IFNα2a + MEDI-545; donor 163; IFN alone 25.94) (relative expression) is 4.58. Also, in the assay with IFNα2a (human), the IFIT3 gene expression, Average (TAQMAN, whole blood + 100 IU IFNα2a + MEDI-545; donor 175; IFN alone 35.02) (relative expression) was 5.28; the IL6ST gene expression, Average (TAQMAN, whole blood + 100 IU IFNα2a + MEDI-545; donor 107; IFN alone 3.54) (relative expression) amounted to 2.62; the IL6ST gene expression, Average (TAQMAN, whole blood + 100 IU IFNα2a + MEDI-545; donor 163; IFN alone 7.69) (relative expression) is 4.18; the IL6ST gene expression, Average (TAQMAN, whole blood + 100 IU IFNα2a + MEDI-545; donor 175; IFN alone 7.62) (relative expression) was 2.95. For the same substance, in the assay with IFNα2a (human), the IRF7 gene expression, Average (TAQMAN, whole blood + 100 IU IFNα2a + MEDI-545; donor 107; IFN alone 18.53) (relative expression) came out at 3.42; the IRF7 gene expression, Average (TAQMAN, whole blood + 100 IU IFNα2a + MEDI-545; donor 163; IFN alone 17.16) (relative expression) was found to be 2.92; the IRF7 gene expression, Average (TAQMAN, whole blood + 100 IU IFNα2a + MEDI-545; donor 175; IFN alone 24.65) (relative expression) is 2.43; the LY6E gene expression, Average (TAQMAN, whole blood + 100 IU IFNα2a + MEDI-545; donor 107; IFN alone 19.09) (relative expression) is 3.5. Also, in the assay with IFNα2a (human), the LY6E gene expression, Average (TAQMAN, whole blood + 100 IU IFNα2a + MEDI-545; donor 163; IFN alone 13.52) (relative expression) is 4.8; the LY6E gene expression, Average (TAQMAN, whole blood + 100 IU IFNα2a + MEDI-545; donor 175; IFN alone 19.32) (relative expression) turned out to be 3.74; the MARCKS gene expression, Average (TAQMAN, whole blood + 100 IU IFNα2a + MEDI-545; donor 163; IFN alone 2.59) (relative expression) stood at 1.55; the MARCKS gene expression, Average (TAQMAN, whole blood + 100 IU IFNα2a + MEDI-545; donor 175; IFN alone 2.59) (relative expression) stood at 0.55. In the assay with IFNα2a (human), the OAS1 gene expression (Average), 107 IFN + 545 (107 IFN alone 15.11; 107 VEH 1.00) is 3.45; the OAS1 gene expression (Average), 163 IFN + 545 (163 IFN alone 14.19; 163 VEH 0.77) was 3.05; the OAS1 gene expression (Average), 175 IFN + 545 (175 IFN alone 22.09; 175 VEH 1.62) came to 4.04; the OAS3 gene expression (Average), 107 IFN + 545 (107 IFN alone 49.04; 107 VEH 1.00) turned out to be 7.03. Besides, in the assay with IFNα2a (human), the OAS3 gene expression (Average), 163 IFN + 545 (163 IFN alone 42.01; 163 VEH 0.49) was 14.6; the OAS3 gene expression (Average), 175 IFN + 545 (175 IFN alone 37.87; 175 VEH 1.27) is 3.92; the RAB8B gene expression, Average (TAQMAN, whole blood + 100 IU IFNα2a + MEDI-545; donor 163; IFN alone 2.20) (relative expression) amounted to 1.18; the RAB8B gene expression, Average (TAQMAN, whole blood + 100 IU IFNα2a + MEDI-545; donor 175; IFN alone 2.63) (relative expression) is 1.15. For the same substance, in the assay with IFNα2a (human), the RSAD2 gene expression (Average), 107 IFN + 545 (107 IFN alone 109.64; 107 VEH 1.00) stood at 9.88; the RSAD2 gene expression (Average), 163 IFN + 545 (163 IFN alone 71.47; 163 VEH 0.56) was determined as 4.39; the RSAD2 gene expression (Average), 175 IFN + 545 (175 IFN alone 126.27; 175 VEH 1.88) came to 8.43. This substance also had a neutralization of ISG15, USP18 and IFIT2 overexpression in keratinocytes stimulated with 150 I.U./mL leukocyte IFN with human leukocyte IFN of 70 to 100%.
With R347 (antibody), in the assay with IFNα2a (human), the HERC5 gene expression (Average), 107 IFN + R347 (107 IFN alone 41.12; 107 VEH 1.00) was found to be 55; the HERC5 gene expression (Average), 163 IFN + R3437 (163 IFN alone 75.81; 163 VEH 1.05) is 95.4; the HERC5 gene expression (Average), 175 IFN + R347 (175 IFN alone 74.58; 175 VEH 1.19) amounted to 98.2; the OAS1 gene expression (Average), 107 IFN + R347 (107 IFN alone 15.11; 107 VEH 1.00) is 17.8. Moreover, in the assay with IFNα2a (human), the OAS1 gene expression (Average), 163 IFN + R3437 (163 IFN alone 14.19; 163 VEH 0.77) was found to be 22.4; the OAS1 gene expression (Average), 175 IFN + R347 (175 IFN alone 22.09; 175 VEH 1.62) was 15.2; the OAS3 gene expression (Average), 107 IFN + R347 (107 IFN alone 49.04; 107 VEH 1.00) amounted to 76.9; the OAS3 gene expression (Average), 163 IFN + R3437 (163 IFN alone 42.01; 163 VEH 0.49) came out at 52.6. Further, in the assay with IFNα2a (human), the OAS3 gene expression (Average), 175 IFN + R347 (175 IFN alone 37.87; 175 VEH 1.27) amounted to 34.9; the RSAD2 gene expression (Average), 107 IFN + R347 (107 IFN alone 109.64; 107 VEH 1.00) was 107; the RSAD2 gene expression (Average), 163 IFN + R3437 (163 IFN alone 71.47; 163 VEH 0.56) amounted to 115; the RSAD2 gene expression (Average), 175 IFN + R347 (175 IFN alone 126.27; 175 VEH 1.88) came out at 91.
